Biological target: T1, HLA-A*02:01 (human)
T1 construct: Captured on streptavidin plates and detected with anti-b2m; also called peptide-receptive MHC molecules; MHC class I
Experiment: UV-ligand exchange, anti-b2m ELISA; peptide exchange yield grade (+ >=10%, ++ >=20%, +++ >=50, ++++ >=75%)
From the text: Candidate peptides for T cell based therapies according to the present invention were further tested for their MHC binding capacity (affinity). The individual peptide-MHC complexes were produced by UV-ligand exchange, where a UV-sensitive peptide is cleaved upon UV-irradiation, and exchanged with the peptide of interest as analyzed. Only peptide candidates that can effectively bind and stabilize the peptide-receptive MHC molecules prevent dissociation of the MHC complexes. To determine the yield of the exchange reaction, an ELISA was performed based on the detection of the light chain (β2m) of stabilized MHC complexes. The assay was performed as generally described in Rodenko et al. (Rodenko et al., 2006).
96 well MAXISorp plates (NUNC) were coated over night with 2 ug/ml streptavidin in PBS at room temperature, washed 4× and blocked for 1 h at 37° C. in 2% BSA containing blocking buffer. Refolded HLA-A*02:01/MLA-001 monomers served as standards, covering the range of 15-500 ng/ml. Peptide-MHC monomers of the UV-exchange reaction were diluted 100 fold in blocking buffer. Samples were incubated for 1 h at 37° C., washed four times, incubated with 2 ug/ml HRP conjugated anti-β2m for 1 h at 37° C., washed again and detected with TMB solution that is stopped with […]. Absorption was measured at 450 nm. Candidate peptides that show a high exchange yield (preferably higher than 50%, most preferred higher than 75%) are generally preferred for a generation and production of antibodies or fragments thereof, and/or T cell receptors or fragments thereof, as they show sufficient avidity to the MHC molecules and prevent dissociation of the MHC complexes.

peptide exchange yield	Binder
50 to 75%	VLINTSVTL
50 to 75%	SLAESLDQA
50 to 75%	KITEAIQYV
50 to 75%	FLDNGPKTI
50 to 75%	HLIAEIHTA (also called PTHL-001)
≥ 75%	KLIDDVHRL
50 to 75%	HLLGHLEQA
20 to 50%	VLVPYEPPQV
≥ 75%	NIIELVHQV
20 to 50%	KVANIIAEV
50 to 75%	SLDENSDQQV
50 to 75%	AVLPHVDQV
50 to 75%	KVADYIPQL
50 to 75%	ALADGVVSQA
50 to 75%	ILASLATSV
20 to 50%	GQDVGRYQV
50 to 75%	ALLDGGSEAYWRV
20 to 50%	ALQEALENA
50 to 75%	SIYEYYHAL
20 to 50%	SILRHVAEV
20 to 50%	SLADSLYNL

— US20180282393A1 (IMMATICS BIOTECHNOLOGIES, published 2018)
